Laboratory results: patent US20220194999A1 (Janssen / Centocor, published 2022)

Assays:
[1] = molecular target: T1, HLA-A*02:01 class I complex (conditional p*HLA*02:01, biotinylated heavy chain with beta2-microglobulin) (human, biotinylated heavy chain); assay: UV peptide exchange, HLA class I ELISA, % of Pos peptide;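 as to Average %: Streptavidin-captured HLA complexes after exchange detected via HRP anti-human B2M antibody, absorbance read, colour scales with intact complex, normalized to exchange control peptide as 100%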;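 as to Exch I (%): Streptavidin-captured HLA complexes after exchange detected via HRP anti-human B2M antibody, absorbance read, colour scales with intact complex, normalized to exchange control peptide as 100%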;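 as to Exch II (%): Streptavidin-captured HLA complexes after exchange detected via HRP anti-human B2M antibody, absorbance read, colour scales with intact complex, normalized to exchange control peptide as 100%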
T1 construct: UV-labile peptide p* is cleaved and exchanged for the test peptide; also called HLA 2.1
Text: (§1) The HLA class I ELISA is an enzyme immunoassay based on the detection of beta2-microglobulin (B2M) of (peptide-stabilized) HLA class I complexes. To this end streptavidin is bound onto polystyrene microtiter wells. After washing and blocking, HLA complex present in exchange reaction mixtures or ELISA controls is captured by the streptavidin on the microtiter plate via its biotinylated heavy chain. Non-bound material is removed by washing. Subsequently, horseradish peroxidase (HRP)-conjugated antibody to human B2M is added. […] In the latter case B2M is removed during the washing step. After removal of non-bound HRP conjugate by washing, a substrate solution is added to the wells. A colored product is formed in proportion to the amount of intact HLA complex present in the samples. After the reaction has been terminated by the addition of a stop solution, absorbance is measured in a microtiter plate reader. The absorbance is normalized to the absorbance of an exchange control peptide (represents 100%). Also, suboptimal HLA binding of peptides with a moderate to low affinity for HLA class I molecules can be detected by this ELISA technique
(§2) Coating wells of two NUNC MaxiSorp™ 96-well ELISA plates: only the contents of one coating buffer capsule were dissolved in 100 mL of distilled water (0.05 M carbonate-bicarbonate buffer, pH 9.6 at 25° C.). 46 μL of Streptavidin stock solution were added to 23 mL coating buffer. 100 μL of the Streptavidin stock solution were added to all wells. Each microtiter plate was covered with an adhesive seal and incubated overnight at room temperature (18-25° C.).

[2] = molecular target: T1, HLA-A*02:01 class I complex …; assay: as above; remark: listed apart in the source
Text: as §1, §2

NMDEYVHNV (also called M111) [SF3B1_R625H5 mimic peptide NMDEYVHNV]
Average % [1]: 83.6%
Exch I (%) [1]: 86.6%
Exch II (%) [1]: 80.6%

NMDEYVHNI (also called M115) [SF3B1.R625H13 mimic peptide NMDEYVHNI]
Average % [1]: 68.4%
Exch I (%) [1]: 73.6%
Exch II (%) [1]: 63.1%

NMDEYVHNT (also called M110) [SF3B1.R625H mutant peptide NMDEYVHNT]
Average % [1]: 8.3%
Exch I (%) [1]: 9.2%
Exch II (%) [1]: 7.3%
average relative binding (%) [2]: < 15%

NLDEYVHNL (also called M114) [SF3B1.R625H10 mimic peptide NLDEYVHNL]
Average % [1]: 55.1%
Exch I (%) [1]: 57.2%
Exch II (%) [1]: 53%

NLDEYVHNV (also called M112) [SF3B1_R625H6 mimic peptide NLDEYVHNV]
Average % [1]: 88.2%
Exch I (%) [1]: 88.1%
Exch II (%) [1]: 88.4%

NLDEYVHNI (also called M116) [SF3B1.R625H14 mimic peptide NLDEYVHNI]
Average % [1]: 70.1%
Exch I (%) [1]: 71.1%
Exch II (%) [1]: 69%

LLGRNSFEL (also called M221) [TP53_V272M2 mimic peptide LLGRNSFEL]
Average % [1]: 98.4%
Exch I (%) [1]: 101%
Exch II (%) [1]: 95.7%

LLGRNSFEI (also called M222) [TP53_V272M3 mimic peptide LLGRNSFEI]
Average % [1]: 66.7%
Exch I (%) [1]: 75.3%
Exch II (%) [1]: 58%

LVVVGAAGV (also called M050) [KRAS.G12A mutant peptide LVVVGAAGV]
Average % [1]: 6.4%
Exch I (%) [1]: 6.6%
Exch II (%) [1]: 6.2%
average relative binding (%) [2]: < 15%

LMVVGAAGV (also called M052) [KRAS_G12A3 mimic peptide LMVVGAAGV]
Average % [1]: 51.3%
Exch I (%) [1]: 51%
Exch II (%) [1]: 51.5%

LMVVGAVGV (also called M072) [KRAS_G12V3 mimic peptide LMVVGAVGV]
Average % [1]: 36.1%
Exch I (%) [1]: 39%
Exch II (%) [1]: 33.3%

LLVVGACGV (also called M061) [KRAS_G12C2 mimic peptide LLVVGACGV]
Average % [1]: 34.8%
Exch I (%) [1]: 36.4%
Exch II (%) [1]: 33.1%

LLVVGAVGV (also called M071) [KRAS_G12V2 mimic peptide LLVVGAVGV]
Average % [1]: 35.9%
Exch I (%) [1]: 31.8%
Exch II (%) [1]: 40.1%

SMTCTYFPL (also called M211) [TP53_S127F11 mimic peptide SMTCTYFPL]
Average % [1]: 53.5%
Exch I (%) [1]: 56.4%
Exch II (%) [1]: 50.6%

GLAPPQLLV (also called M141) [TP53_H193L5 mimic peptide GLAPPQLLV]
Average % [1]: 42.2%
Exch I (%) [1]: 40.3%
Exch II (%) [1]: 44.1%

GMAPPQYLV (also called M152) [TP53_H193Y6 mimic peptide GMAPPQYLV]
Average % [1]: 21.4%
Exch I (%) [1]: 22.5%
Exch II (%) [1]: 20.3%

GLAPPQYLV (also called M151) [TP53_H193Y5 mimic peptide GLAPPQYLV]
Average % [1]: 48.2%
Exch I (%) [1]: 48.8%
Exch II (%) [1]: 47.6%

GMAPPQLLV (also called M142) [TP53_H193L6 mimic peptide GMAPPQLLV]
Average % [1]: 13.9%
Exch I (%) [1]: 13.9%
Exch II (%) [1]: 13.9%
average relative binding (%) [2]: < 15%

GLAPPQLLI (also called M140) [TP53.H193L mutant peptide GLAPPQLLI]
Average % [1]: 8.2%
Exch I (%) [1]: 9.2%
Exch II (%) [1]: 7.2%
average relative binding (%) [2]: < 15%

GLAPPQYLI (also called M150) [TP53.H193Y mutant peptide GLAPPQYLI]
Average % [1]: 13.3%
Exch I (%) [1]: 13.5%
Exch II (%) [1]: 13.1%
average relative binding (%) [2]: < 15%

ILNREIDFV (also called M091) [PIK3CA_G118D5 mimic peptide ILNREIDFV]
Average % [1]: 70.4%
Exch I (%) [1]: 62.1%
Exch II (%) [1]: 78.7%

ILNREIDFL (also called M093) [PIK3CA_G118D9 mimic peptide ILNREIDFL]
Average % [1]: 56.2%
Exch I (%) [1]: 51.1%
Exch II (%) [1]: 61.3%

IMNREIDFV (also called M092) [PIK3CA_G118D6 mimic peptide IMNREIDFV]
Average % [1]: 66.7%
Exch I (%) [1]: 68.6%
Exch II (%) [1]: 64.9%

CYLYYYSYLV (also called M102) [PTEN R173C6 mimic peptide CYLYYYSYLV]
Average % [1]: 10.7%
Exch I (%) [1]: 10.4%
Exch II (%) [1]: 10.9%
average relative binding (%) [2]: < 15%

CYMYYYSYLI (also called M106) [PTEN.R173C11 mimic peptide CYMYYYSYLI]
Average % [1]: 4.9%
Exch I (%) [1]: 4.9%
Exch II (%) [1]: 4.8%
average relative binding (%) [2]: < 15%

CYMYYYSYLL (also called M104) [PTEN.R173C3 mimic peptide CYMYYYSYLL]
Average % [1]: 8.5%
Exch I (%) [1]: 8.3%
Exch II (%) [1]: 8.7%
average relative binding (%) [2]: < 15%

CYLYYYSYLI (also called M105) [PTEN.R173C10 mimic peptide CYLYYYSYLI]
Average % [1]: 23.3%
Exch I (%) [1]: 27.8%
Exch II (%) [1]: 18.9%

GLKDLLNPV (also called M081) [PIK3CA_E453K5 mimic peptide GLKDLLNPV]
Average % [1]: 74.9%
Exch I (%) [1]: 73.5%
Exch II (%) [1]: 76.3%

GMKDLLNPV (also called M082) [PIK3CA_E453K6 mimic peptide GMKDLLNPV]
Average % [1]: 77.5%
Exch I (%) [1]: 74.7%
Exch II (%) [1]: 80.4%

VMSDAISAL (also called M124; SOX17.S40317) [SOX17.S403I7 mimic peptide VMSDAISAL]
Average % [1]: 77.4%
Exch I (%) [1]: 75.3%
Exch II (%) [1]: 79.5%

VVSDAISAV (also called M120; SOX17.S4031) [SOX17.S403I mutant peptide VVSDAISAV]
Average % [1]: 86.2%
Exch I (%) [1]: 88.5%
Exch II (%) [1]: 83.8%

VLSDAISAL (also called M123; SOX17_S40316) [SOX17_S403I6 mimic peptide VLSDAISAL]
Average % [1]: 87.3%
Exch I (%) [1]: 91.9%
Exch II (%) [1]: 82.6%

VMSDAISAV (also called M122; SOX17_S40313) [SOX17_S403I3 mimic peptide VMSDAISAV]
Average % [1]: 92.4%
Exch I (%) [1]: 96.9%
Exch II (%) [1]: 87.9%

MIFSKRHWA (also called M010) [CIC.R215W mutant peptide MIFSKRHWA]
Average % [1]: 6.2%
Exch I (%) [1]: 6.2%
Exch II (%) [1]: 6.1%
average relative binding (%) [2]: < 15%

QLWVDSTPI (also called M181) [TP53_P152L3 mimic peptide QLWVDSTPI]
Average % [1]: 67.9%
Exch I (%) [1]: 62%
Exch II (%) [1]: 73.8%

QLWVDSTPV (also called M182) [TP53_P152L4 mimic peptide QLWVDSTPV]
Average % [1]: 95.7%
Exch I (%) [1]: 95.6%
Exch II (%) [1]: 95.7%

MMFSKRHWV (also called M013) [CIC_R215W7 mimic peptide MMFSKRHWV]
Average % [1]: 74.4%
Exch I (%) [1]: 76.2%
Exch II (%) [1]: 72.6%

MLFSKRHWV (also called M012) [CIC_R215W6 mimic peptide MLFSKRHWV]
Average % [1]: 74.3%
Exch I (%) [1]: 74.8%
Exch II (%) [1]: 73.8%

MMFSKRHWI (also called M011) [CIC_R215W15 mimic peptide MMFSKRHWI]
Average % [1]: 42.8%
Exch I (%) [1]: 40.4%
Exch II (%) [1]: 45.3%

AMNNMFCQV (also called M162) [TP53_K132N6 mimic peptide AMNNMFCQV]
Average % [1]: 70.1%
Exch I (%) [1]: 69.4%
Exch II (%) [1]: 70.8%

YMDSGIHFL (also called M035) [CTNNB1.S37F10 mimic peptide YMDSGIHFL]
Average % [1]: 105%
Exch I (%) [1]: 102%
Exch II (%) [1]: 108%
average relative binding (%) [2]: > 100%

YMDSGIHFI (also called M031) [CTNNB1_S37F14 mimic peptide YMDSGIHFI]
Average % [1]: 107%
Exch I (%) [1]: 97.6%
Exch II (%) [1]: 116%
average relative binding (%) [2]: > 100%

YLDSGIHFV (also called M032) [CTNNB1_S37F5 mimic peptide YLDSGIHFV]
Average % [1]: 104%
Exch I (%) [1]: 99.3%
Exch II (%) [1]: 109%
average relative binding (%) [2]: > 100%

KLYPVQLWI (also called M134) [TP53.C141Y12 mimic peptide KLYPVQLWI]
Average % [1]: 73.9%
Exch I (%) [1]: 81.3%
Exch II (%) [1]: 66.4%

KMYPVQLWV (also called M132) [TP53_C141Y3 mimic peptide KMYPVQLWV]
Average % [1]: 76.9%
Exch I (%) [1]: 72.7%
Exch II (%) [1]: 81%

RLIHRDLAV (also called M242) [ERBB2_V842I5 mimic peptide RLIHRDLAV]
Average % [1]: 73.6%
Exch I (%) [1]: 69.9%
Exch II (%) [1]: 77.3%

RMIHRDLAV (also called M243; ERBB2_V84216) [ERBB2_V842I6 mimic peptide RMIHRDLAV]
Average % [1]: 57.6%
Exch I (%) [1]: 56.7%
Exch II (%) [1]: 58.5%

RMIHRDLAL (also called M241; ERBB2_V842110) [ERBB2_V842I10 mimic peptide RMIHRDLAL]
Average % [1]: 53.7%
Exch I (%) [1]: 51.5%
Exch II (%) [1]: 55.8%

YLDCGIHSL (also called M034) [CTNNB1.S33C9 mimic peptide YLDCGIHSL]
Average % [1]: 107%
Exch I (%) [1]: 103%
Exch II (%) [1]: 111%
average relative binding (%) [2]: > 100%

YMDCGIHSL (also called M021) [CTNNB1_S33C10 mimic peptide YMDCGIHSL]
Average % [1]: 106%
Exch I (%) [1]: 108%
Exch II (%) [1]: 103%
average relative binding (%) [2]: > 100%

YMDCGIHSV (also called M023) [CTNNB1_S33C6 mimic peptide YMDCGIHSV]
Average % [1]: 108%
Exch I (%) [1]: 101%
Exch II (%) [1]: 115%
average relative binding (%) [2]: > 100%
